Experimental findings from US20260193293A1 (UNIVERSITY OF COPENHAGEN, published 2026) are described below.

Non-standard residues stand in square brackets, D forms with d. 2Nal = N[C@@H](Cc1ccc2ccccc2c1)C(=O)O

Test [1] deals with T1, Sushi domains (SD1/2) protein of the GABAB1a (GB1a) subunit, recombinant.
T1 construct: domain: Sushi domains (SD1/2); also called SDs; sushi domain 1/2 (SD1/2) protein
Description: FP competition.
Description: Fluorescence polarization (FP). FP assay was employed to determine the binding affinity of peptides in flat bottom black 384-well plates (Corning Life Science) using a Safire2 plate reader (Tecan). All experiments were conducted in 1×PBS (pH 7.4) containing 1% bovine serum albumin (BSA) at rt. The fluorescence polarization values were measured using excitation/emission wavelengths of 530/580 nm. […] For saturation assay, the millipolarization values were measured after mixing of probes with 12 serial 1 to 1 diluted concentrations of Sushi domains (SD1/2) protein. All experiments were performed in triplicate and the data were plotted to the one-site binding model using GraphPad Prism 9 to calculate the Kd of probes. […] The experiments were performed at least in triplicate and the data were fitted to the sigmoidal dose response curve using GraphPad Prism 9 to obtain the IC₅₀ of peptides. The Kᵢ values were calculated according to Nikolovska-Coleska et al³¹⁰.

Test [2] concerns the target T2, native full-length GB1a subunit from mouse brain membrane fraction (mouse, UniProt Q9WV18 20-960).
T2 construct: Detected by immunoblot after pull-down from brain lysate; also called native GB1a; native SD
Description: pull-down from mouse brain lysate, immunoblot. A general note: A western blot detects proteins with antibodies after separation by electrophoresis.
Description: Preparation of whole-brain lysates. Dissected adult mouse brains were placed in ice-cold homogenization buffer (320 mM sucrose, 4 mM HEPES, PH 7.5, 1 mM EDTA, 1 mM EGTA, supplemented with complete EDTA-free protease inhibitor mixture (Roche), 1 mL per 100 mg of brain) and homogenized with a glass-Teflon homogenizer (40 passes) on ice. […] The final brain lysates (at 2 mg/mL protein concentration) were directly used for immunoblot analysis (input lanes) or for pull-down experiments.
Pull-down experiments. […] For immunoblotting analysis, proteins were transferred to nitrocellulose membrane (0.2-μm pore size) (iBlot™ 2 Transfer Stacks, nitrocellulose, mini) using iBlot2 (invitrogen) and then probed with the primary antibodies mouse anti-SD clone 43N12 (1:250) or mouse monoclonal to GABAB1 subunit (abcam, 1:500) in combination with secondary peroxidase-coupled sheep anti-mouse IgG antibody (Cytiva, 1:5000).

T2 sequence (Q9WV18 20-960): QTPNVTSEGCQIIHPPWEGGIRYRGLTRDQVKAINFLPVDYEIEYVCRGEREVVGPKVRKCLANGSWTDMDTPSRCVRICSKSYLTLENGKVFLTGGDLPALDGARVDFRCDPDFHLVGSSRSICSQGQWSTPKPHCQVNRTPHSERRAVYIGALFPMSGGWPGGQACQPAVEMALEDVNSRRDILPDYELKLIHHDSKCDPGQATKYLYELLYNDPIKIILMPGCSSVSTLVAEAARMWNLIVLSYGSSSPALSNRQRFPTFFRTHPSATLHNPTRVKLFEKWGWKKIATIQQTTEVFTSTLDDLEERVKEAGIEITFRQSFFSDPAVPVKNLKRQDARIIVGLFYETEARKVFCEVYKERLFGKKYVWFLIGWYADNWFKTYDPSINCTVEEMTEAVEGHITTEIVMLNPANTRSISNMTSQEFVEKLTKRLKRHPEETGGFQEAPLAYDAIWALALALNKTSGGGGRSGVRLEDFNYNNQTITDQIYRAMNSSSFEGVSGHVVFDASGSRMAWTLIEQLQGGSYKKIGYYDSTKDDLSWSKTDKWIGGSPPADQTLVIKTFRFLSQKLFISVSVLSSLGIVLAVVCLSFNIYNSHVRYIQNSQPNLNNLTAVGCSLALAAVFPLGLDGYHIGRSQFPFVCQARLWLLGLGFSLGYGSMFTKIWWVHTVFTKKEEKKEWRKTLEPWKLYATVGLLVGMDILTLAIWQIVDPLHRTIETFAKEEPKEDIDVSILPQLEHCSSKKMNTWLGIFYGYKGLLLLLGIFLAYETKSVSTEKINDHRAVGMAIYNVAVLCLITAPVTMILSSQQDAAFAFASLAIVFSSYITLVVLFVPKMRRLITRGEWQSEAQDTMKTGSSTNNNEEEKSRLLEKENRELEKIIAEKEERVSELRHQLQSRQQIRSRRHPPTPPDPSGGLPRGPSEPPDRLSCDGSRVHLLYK
T1 sequence (Q9Z0U4 29-158): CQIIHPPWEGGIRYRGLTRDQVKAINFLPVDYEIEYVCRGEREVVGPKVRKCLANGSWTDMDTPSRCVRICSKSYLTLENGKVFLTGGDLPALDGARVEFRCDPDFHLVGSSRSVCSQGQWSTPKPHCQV

B1: Scr-20, scrambled version of peptide 20 ((2Nala)EDSDDYDDIDDDW) (peptide)
peptide: Ac-[2Nal]EDSDDYDDIDDDW-NH2
SMILES: CC[C@H](C)[C@H](NC(=O)[C@H](CC(=O)O)NC(=O)[C@H](CC(=O)O)NC(=O)[C@H](Cc1ccc(O)cc1)NC(=O)[C@H](CC(=O)O)NC(=O)[C@H](CC(=O)O)NC(=O)[C@H](CO)NC(=O)[C@H](CC(=O)O)NC(=O)[C@H](CCC(=O)O)NC(=O)[C@H](Cc1ccc2ccccc2c1)NC(C)=O)C(=O)N[C@@H](CC(=O)O)C(=O)N[C@@H](CC(=O)O)C(=O)N[C@@H](CC(=O)O)C(=O)N[C@@H](Cc1c[nH]c2ccccc12)C(N)=O
What is called Ki is the dissociation constant of the complex between target and ligand, obtained from inhibition or displacement. Take B1: in test [1], the Ki is 31 µM. For the same molecule, in test [2], the binding result is “no binding”.
